Columns and labels:
Test in all cases: cell_activity; T cells, mostly above 70%
Settings in all cases: tags: SV40 NLS; FokI fusion
TIGIT left V2 TALEN = target: T1, TIGIT left V2 TALEN (synthetic, UniProt Q56830 SEQ:15-719)
T1 chain: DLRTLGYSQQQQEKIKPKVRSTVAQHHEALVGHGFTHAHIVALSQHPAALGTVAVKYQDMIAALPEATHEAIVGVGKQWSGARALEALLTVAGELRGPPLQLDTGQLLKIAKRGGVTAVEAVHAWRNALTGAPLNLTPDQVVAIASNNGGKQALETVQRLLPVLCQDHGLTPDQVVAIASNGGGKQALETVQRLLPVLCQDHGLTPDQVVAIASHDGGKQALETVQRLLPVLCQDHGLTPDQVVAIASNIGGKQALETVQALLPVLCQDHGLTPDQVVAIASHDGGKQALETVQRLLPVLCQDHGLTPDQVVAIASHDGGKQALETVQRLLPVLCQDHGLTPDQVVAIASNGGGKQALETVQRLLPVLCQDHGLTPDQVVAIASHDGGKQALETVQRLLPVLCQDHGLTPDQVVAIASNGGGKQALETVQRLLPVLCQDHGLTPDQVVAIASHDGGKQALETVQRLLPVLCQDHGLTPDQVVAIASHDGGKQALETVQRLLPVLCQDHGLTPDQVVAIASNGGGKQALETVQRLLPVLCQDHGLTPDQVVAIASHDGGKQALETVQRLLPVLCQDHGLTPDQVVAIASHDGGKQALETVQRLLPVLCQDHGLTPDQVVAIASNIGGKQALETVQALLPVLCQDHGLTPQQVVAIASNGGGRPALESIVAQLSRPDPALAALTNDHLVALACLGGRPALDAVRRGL

TIGIT right V2 TALEN = target: T2, TIGIT right V2 TALEN (synthetic, UniProt Q56830 SEQ:15-719)
T2 chain: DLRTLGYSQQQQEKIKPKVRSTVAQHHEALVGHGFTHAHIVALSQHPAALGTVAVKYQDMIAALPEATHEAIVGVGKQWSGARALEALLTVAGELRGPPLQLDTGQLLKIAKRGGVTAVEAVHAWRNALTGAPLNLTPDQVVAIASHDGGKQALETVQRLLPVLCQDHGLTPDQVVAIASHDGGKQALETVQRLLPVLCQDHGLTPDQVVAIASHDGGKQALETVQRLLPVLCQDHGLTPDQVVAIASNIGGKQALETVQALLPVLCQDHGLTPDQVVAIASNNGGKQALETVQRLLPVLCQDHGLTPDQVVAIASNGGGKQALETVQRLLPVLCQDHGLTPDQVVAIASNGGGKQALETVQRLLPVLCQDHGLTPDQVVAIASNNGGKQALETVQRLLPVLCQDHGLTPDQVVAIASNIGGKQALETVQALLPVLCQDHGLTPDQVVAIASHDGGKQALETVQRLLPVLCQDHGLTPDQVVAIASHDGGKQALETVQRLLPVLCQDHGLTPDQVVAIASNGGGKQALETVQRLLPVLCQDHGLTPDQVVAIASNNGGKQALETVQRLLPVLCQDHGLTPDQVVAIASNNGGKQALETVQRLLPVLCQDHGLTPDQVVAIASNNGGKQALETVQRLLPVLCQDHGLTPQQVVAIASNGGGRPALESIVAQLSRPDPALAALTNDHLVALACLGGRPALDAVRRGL

CISH (1) left V2 TALEN = target: T3, CISH (1) left V2 TALEN (synthetic, UniProt Q56830 SEQ:15-719)
T3 chain: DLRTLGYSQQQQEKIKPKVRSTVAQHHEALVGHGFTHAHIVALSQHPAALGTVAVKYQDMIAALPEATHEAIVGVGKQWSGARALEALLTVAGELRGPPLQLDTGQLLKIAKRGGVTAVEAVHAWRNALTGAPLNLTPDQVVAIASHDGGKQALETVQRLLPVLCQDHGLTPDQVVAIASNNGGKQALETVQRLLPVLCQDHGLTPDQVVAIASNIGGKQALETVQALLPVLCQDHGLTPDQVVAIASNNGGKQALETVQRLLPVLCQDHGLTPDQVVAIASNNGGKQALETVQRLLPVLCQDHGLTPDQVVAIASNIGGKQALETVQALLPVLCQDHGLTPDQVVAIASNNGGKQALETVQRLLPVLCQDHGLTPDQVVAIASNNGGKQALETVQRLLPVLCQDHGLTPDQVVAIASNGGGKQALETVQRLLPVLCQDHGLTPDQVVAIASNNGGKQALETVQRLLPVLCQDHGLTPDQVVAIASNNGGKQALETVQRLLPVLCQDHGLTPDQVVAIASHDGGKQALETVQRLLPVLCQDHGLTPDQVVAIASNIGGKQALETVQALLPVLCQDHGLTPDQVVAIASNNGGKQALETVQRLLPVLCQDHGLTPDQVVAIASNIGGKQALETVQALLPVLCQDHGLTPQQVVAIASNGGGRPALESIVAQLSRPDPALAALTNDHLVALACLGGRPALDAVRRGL

CISH (1) right V2 TALEN = target: T4, CISH (1) right V2 TALEN (synthetic, UniProt Q56830 SEQ:15-719)
T4 chain: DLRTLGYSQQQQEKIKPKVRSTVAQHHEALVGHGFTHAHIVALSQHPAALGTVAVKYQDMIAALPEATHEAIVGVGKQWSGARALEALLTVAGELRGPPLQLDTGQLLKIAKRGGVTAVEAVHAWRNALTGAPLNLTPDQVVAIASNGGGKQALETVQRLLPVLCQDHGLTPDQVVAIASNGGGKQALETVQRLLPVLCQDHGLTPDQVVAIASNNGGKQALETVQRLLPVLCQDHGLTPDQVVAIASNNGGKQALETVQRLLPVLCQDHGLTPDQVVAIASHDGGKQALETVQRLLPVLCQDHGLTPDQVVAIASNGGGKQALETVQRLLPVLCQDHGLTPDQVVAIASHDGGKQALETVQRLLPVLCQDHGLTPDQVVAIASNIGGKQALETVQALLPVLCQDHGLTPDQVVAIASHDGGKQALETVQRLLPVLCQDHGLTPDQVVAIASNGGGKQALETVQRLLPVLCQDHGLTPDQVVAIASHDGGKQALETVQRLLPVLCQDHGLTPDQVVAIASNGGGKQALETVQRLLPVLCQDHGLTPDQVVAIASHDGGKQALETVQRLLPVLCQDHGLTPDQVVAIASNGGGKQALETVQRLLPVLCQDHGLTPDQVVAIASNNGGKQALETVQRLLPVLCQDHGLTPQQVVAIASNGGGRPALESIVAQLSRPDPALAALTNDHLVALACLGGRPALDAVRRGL

CISH (2) left V2 TALEN = target: T5, CISH (2) left V2 TALEN (synthetic, UniProt Q56830 SEQ:15-719)
T5 chain: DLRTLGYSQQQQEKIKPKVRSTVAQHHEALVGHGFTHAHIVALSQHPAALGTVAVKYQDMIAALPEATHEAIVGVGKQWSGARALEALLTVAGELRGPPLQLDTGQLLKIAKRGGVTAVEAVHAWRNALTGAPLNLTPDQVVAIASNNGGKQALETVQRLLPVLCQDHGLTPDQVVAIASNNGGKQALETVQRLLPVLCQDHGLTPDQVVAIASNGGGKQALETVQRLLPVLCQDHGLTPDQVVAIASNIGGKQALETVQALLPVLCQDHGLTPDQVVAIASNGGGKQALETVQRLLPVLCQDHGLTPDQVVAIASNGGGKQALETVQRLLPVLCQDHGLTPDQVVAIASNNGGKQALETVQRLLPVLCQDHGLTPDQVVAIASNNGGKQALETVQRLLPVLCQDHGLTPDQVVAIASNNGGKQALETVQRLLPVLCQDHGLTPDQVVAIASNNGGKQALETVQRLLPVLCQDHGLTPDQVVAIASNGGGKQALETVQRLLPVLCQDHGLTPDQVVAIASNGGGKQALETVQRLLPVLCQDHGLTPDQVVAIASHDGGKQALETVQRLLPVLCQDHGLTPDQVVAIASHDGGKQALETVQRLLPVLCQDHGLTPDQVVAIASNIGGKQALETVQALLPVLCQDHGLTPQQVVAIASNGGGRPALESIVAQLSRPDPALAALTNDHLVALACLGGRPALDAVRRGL

CISH (2) right V2 TALEN = target: T6, CISH (2) right V2 TALEN (synthetic, UniProt Q56830 SEQ:15-719)
T6 chain: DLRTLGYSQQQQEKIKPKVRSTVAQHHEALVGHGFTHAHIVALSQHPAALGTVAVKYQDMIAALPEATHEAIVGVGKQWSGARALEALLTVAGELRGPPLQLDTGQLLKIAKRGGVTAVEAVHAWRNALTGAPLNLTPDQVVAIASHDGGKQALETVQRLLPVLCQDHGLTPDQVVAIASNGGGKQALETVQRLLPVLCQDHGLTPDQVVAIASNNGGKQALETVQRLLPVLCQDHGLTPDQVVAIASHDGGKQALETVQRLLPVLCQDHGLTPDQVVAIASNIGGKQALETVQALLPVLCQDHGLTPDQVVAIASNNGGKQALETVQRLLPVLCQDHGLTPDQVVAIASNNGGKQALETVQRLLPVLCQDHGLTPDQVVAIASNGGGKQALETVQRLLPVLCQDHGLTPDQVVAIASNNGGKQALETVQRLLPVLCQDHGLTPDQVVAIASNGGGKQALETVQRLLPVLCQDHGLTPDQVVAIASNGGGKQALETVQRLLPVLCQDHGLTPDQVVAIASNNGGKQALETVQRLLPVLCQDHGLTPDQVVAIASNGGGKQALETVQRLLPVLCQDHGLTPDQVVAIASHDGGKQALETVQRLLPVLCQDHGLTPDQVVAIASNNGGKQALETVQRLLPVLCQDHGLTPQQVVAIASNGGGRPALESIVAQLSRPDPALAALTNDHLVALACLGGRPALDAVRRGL

CISH (3) left V2 TALEN = target: T7, CISH (3) left V2 TALEN (synthetic, UniProt Q56830 SEQ:15-719)
T7 chain: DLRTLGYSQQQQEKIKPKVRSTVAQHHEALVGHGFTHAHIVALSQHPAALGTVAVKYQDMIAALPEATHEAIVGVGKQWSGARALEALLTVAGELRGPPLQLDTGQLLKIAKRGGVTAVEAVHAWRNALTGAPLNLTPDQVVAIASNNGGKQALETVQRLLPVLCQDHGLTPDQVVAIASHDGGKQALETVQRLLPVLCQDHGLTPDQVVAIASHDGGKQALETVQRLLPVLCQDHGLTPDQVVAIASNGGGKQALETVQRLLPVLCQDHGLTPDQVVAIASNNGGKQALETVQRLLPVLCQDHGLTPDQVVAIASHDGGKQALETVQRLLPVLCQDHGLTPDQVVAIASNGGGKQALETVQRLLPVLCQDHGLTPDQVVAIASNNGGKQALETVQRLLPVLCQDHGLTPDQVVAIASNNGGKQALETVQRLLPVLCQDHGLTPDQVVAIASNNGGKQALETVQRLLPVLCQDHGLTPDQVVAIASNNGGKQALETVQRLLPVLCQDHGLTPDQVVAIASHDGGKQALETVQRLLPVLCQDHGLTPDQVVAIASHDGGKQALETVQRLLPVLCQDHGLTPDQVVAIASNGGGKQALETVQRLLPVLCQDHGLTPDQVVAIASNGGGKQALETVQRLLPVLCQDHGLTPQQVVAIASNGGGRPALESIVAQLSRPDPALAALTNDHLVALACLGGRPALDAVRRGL

B1: TIGIT left half-site (dsDNA)
DNA 1: TGTCACCTCTCCTCCAC
DNA 2: GTGGAGGAGAGGTGACA
Q: How did the activity (TIGIT left V2 TALEN) turn out when B1 was run?
A: > 50 % indels

B2: TIGIT right half-site (dsDNA)
DNA 1: ACCCAGGTCAACTGGGA
DNA 2: TCCCAGTTGACCTGGGT
Q: B2 was tested. Which activity (TIGIT right V2 TALEN) did it give?
A: > 50 % indels

B3: CISH (1) left half-site (dsDNA)
DNA 1: TCGAGGAGGTGGCAGAG
DNA 2: CTCTGCCACCTCCTCGA
Q: With B3 as the binder, how does the activity (CISH (1) left V2 TALEN) read?
A: > 50 % indels

B4: CISH (1) right half-site (dsDNA)
DNA 1: ACAGAGAGTGAGCCAAA
DNA 2: TTTGGCTCACTCTCTGT
Q: Which activity (CISH (1) right V2 TALEN) does the source give for B4 here?
A: > 50 % indels

B5: CISH (2) left half-site (dsDNA)
DNA 1: TGGTATTGGGGTTCCAT
DNA 2: ATGGAACCCCAATACCA
Q: B5 was tested. Which activity (CISH (2) left V2 TALEN) did it give?
A: > 50 % indels

B6: CISH (2) right half-site (dsDNA)
DNA 1: CCGACAACACCTGCAGA
DNA 2: TCTGCAGGTGTTGTCGG
Q: B6 was tested. Which activity (CISH (2) right V2 TALEN) did it give?
A: > 50 % indels

B7: CISH (3) left half-site (dsDNA)
DNA 1: TGCCTGCTGGGGCCTTC
DNA 2: GAAGGCCCCAGCAGGCA
Q: B7 was tested. Which activity (CISH (3) left V2 TALEN) did it give?
A: > 50 % indels

From patent US20250002945, “NEW TALE PROTEIN SCAFFOLDS WITH IMPROVED ON-TARGET/OFF-TARGET ACTIVITY RATIOS” (CELLECTIS SA, published 2025)
